According to patent US20240294650A1 (Alector, published 2024):

Tests used:
[1] = molecular target: T1, recombinant murine MerTK extracellular domain (mouse, UniProt Q60805 19-497); assay: SPR Carterra LSA, Ab immobilised
T1 construct: also called Mouse MerTK; murine MerTK ECD; not shown: polyHis or TEVS/Thrombin/murine IgG2a-Fc tag
T1 sequence: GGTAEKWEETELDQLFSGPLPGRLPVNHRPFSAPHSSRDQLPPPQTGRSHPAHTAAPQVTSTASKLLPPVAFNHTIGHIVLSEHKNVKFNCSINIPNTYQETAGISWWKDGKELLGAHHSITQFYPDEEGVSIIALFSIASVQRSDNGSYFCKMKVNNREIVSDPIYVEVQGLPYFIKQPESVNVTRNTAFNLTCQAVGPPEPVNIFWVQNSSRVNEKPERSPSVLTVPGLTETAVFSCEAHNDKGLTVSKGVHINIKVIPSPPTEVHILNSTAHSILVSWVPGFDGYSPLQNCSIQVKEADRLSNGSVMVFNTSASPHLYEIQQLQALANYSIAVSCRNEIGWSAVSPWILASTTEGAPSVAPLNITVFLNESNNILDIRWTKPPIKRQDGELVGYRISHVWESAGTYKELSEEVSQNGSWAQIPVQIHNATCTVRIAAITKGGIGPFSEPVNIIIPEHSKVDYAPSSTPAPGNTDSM
Description: Binding kinetics of anti-MerTK IgG1 antibodies of the present disclosure to human, cyno, and murine MerTK were evaluated using a Carterra LSA instrument (Carterra, Salt Lake City, UT). […] A HC200M sensor chip (Carterra) was activated using the single channel flow cell with a 7-minute injection of a 1:1:1 mixture of 100 mM MES pH 5.5, 100 mM sulfo-NHS, 400 mM EDC (all reconstituted in MES pH 5.5; 100 μl of each mixed in vial immediately before running assay). After switching to the multi-channel array flow cell, the antibodies were injected over the activated chip in three 96-spot arrays for 10 minutes each. The remaining unconjugated active groups on the chip were then blocked by injecting 1M Ethanolamine pH 8.5 (Carterra) for 7 minutes using the single channel flow cell. The resulting sensor chip contained three spots for each antibody, at three different densities. Two independent experiments were performed as follows, resulting in an N of between one and six determinations for each antibody. Spots that yielded less than 25 RU of analyte binding were excluded from further analysis.
After priming with running buffer (HBS-TE, Carterra) with 0.5 mg/ml BSA (Sigma), the immobilized anti-MerTK antibodies were tested for their ability to bind to several forms of recombinant MerTK extracellular domain, including human, cynomolgus, and mouse orthologs as described above. Estimates of affinity were generated by injecting each analyte over the entire antibody array using the single channel flow cell. MerTK analytes were diluted with running buffer, in a series of six, three-fold serial dilutions starting from 1 μM for human and cynomolgus MerTK, and 600 nM for mouse MerTK. Analytes were injected for 5 minutes, and dissociation was followed for 10 minutes. After each analyte injection, antibodies were regenerated with either Protein A/G Elution Buffer (Thermo) with 1M NaCl (Teknova), or with 10 mM Glycine pH 2.5. Three buffer blanks were run between each series (one species per series). Data were processed and analyzed using NextGenKIT high-throughput kinetics analysis software (Carterra).

[2] = molecular target: T2, endogenous murine MerTK on bone marrow-derived macrophages (mouse, UniProt Q60805 19-994); assay: FACS, mouse BMDM, WT minus MerTK KO
T2 construct: whole, on cells; MFI on MerTK KO BMDM subtracted; also called BMDM WT-KO
T2 sequence (looked up): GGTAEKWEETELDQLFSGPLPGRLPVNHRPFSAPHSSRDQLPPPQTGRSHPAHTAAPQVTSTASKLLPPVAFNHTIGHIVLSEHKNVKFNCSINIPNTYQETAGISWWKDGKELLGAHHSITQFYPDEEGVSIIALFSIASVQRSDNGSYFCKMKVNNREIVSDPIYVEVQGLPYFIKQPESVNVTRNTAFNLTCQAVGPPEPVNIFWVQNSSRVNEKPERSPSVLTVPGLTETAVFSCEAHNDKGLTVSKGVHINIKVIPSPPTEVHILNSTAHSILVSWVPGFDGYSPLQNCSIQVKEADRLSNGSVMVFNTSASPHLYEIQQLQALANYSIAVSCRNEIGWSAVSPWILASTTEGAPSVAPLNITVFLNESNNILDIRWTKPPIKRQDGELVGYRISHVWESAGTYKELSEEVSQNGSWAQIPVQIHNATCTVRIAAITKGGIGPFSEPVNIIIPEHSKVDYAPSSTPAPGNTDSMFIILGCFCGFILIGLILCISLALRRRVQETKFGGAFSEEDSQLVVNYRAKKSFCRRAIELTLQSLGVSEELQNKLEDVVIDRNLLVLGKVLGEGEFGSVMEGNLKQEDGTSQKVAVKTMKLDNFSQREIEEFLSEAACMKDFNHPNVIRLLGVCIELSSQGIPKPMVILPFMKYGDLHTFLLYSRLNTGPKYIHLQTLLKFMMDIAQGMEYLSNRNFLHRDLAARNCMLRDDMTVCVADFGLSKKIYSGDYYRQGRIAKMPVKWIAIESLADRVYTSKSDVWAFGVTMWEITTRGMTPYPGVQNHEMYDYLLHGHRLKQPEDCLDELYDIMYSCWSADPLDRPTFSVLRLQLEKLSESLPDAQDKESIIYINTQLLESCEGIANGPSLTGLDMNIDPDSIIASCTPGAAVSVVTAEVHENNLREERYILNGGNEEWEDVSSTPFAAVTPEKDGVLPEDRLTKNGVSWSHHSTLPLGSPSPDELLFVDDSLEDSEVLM
Description: To determine whether recombinant anti-human MerTK antibodies of the present disclosure bind to human MerTK endogenously expressed on SK-MEL-5 cells and CHO cells overexpressing mouse MerTK (CHO-muMerTK OE cells), as compared to A375 and parental CHO cells as negative controls, the following experiments were performed. SK-MEL-5 cells, A375 cells, CHO-muMerTK OE cells, and CHO parental cells were plated at 100,000 cells/well. Anti-MerTK antibodies were added to the cells at 10 μg/ml. After 60 minutes on ice, cells were washed and then stained with PE-conjugated goat anti-human IgG antibody (Southern Biotech Cat #2040-09, Birmingham, AL) in the presence of Fc block solution on ice for 30 minutes, and then washed twice with cold FACS buffer (2% FBS in PBS). Mouse anti-human MerTK-PE conjugated (Biolegend, Clone 590H11G1E3) or anti-mouse MerTK-PE conjugated (ThermoFisher, Clone DS5MMER) antibodies were used as positive controls. Stained cells were acquired on a BD FACS Canto II cytometer and the mean fluorescence intensity (MFI) was calculated with FlowJo.
To confirm anti-MerTK antibody binding to endogenous murine MerTK, bone marrow-derived macrophages (BMDM) were isolated from MerTK wild type (WT) and knockout (KO) mice (The Jackson Laboratory, Cat #011122) using standard protocols. Briefly, cells isolated from the bone marrow were plated in the presence of 50 ng/ml M-CSF (R&D Systems, Cat #416-ML) for seven days to allow for differentiation into macrophages. Cell staining, FACs, and MFI were performed and calculated as described above.

[3] = molecular target: T3, His tag-conjugated recombinant ProS (human, UniProt P07225 42-676, limits assumed); assay: ELISA, captured Ab, ProS-His 10 ug/ml, no MerTK
T3 construct: bought; also called Protein S; ProS1 (R&D systems, Cat #9489-PS-100)
T3 sequence (looked up): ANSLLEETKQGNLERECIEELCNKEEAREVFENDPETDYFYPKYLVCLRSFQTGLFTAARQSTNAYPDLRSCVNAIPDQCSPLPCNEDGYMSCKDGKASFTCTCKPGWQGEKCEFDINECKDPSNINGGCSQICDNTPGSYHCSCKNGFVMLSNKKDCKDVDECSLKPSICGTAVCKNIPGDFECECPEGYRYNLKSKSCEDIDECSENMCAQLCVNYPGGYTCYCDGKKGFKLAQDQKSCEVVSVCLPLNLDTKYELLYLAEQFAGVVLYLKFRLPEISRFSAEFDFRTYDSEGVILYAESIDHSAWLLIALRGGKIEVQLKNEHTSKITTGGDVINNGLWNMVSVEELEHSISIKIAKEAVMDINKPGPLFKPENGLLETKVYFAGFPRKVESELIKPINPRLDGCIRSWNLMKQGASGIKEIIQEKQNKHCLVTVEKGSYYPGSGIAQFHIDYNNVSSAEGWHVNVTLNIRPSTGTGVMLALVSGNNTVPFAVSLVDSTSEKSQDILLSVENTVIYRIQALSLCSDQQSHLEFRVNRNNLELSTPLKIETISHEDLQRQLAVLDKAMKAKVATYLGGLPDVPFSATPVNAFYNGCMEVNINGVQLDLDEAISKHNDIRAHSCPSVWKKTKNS

MFI [2]: 412 MFI | binding result [3]: binds
B1: MTK-232 (antibody, human IgG1, V domains shown)
VH: EVQLQESGPSLVKPSQTLSLTCSVTGDSITSGYWNWIRKFPGNKLEYMGYINYSGSTNYNPSLKSRISITRDTSKNQYYLQLNSVTTEDTATYYCARWNYLYYFDYWGQGTTLTVSS
VL: DSVMTQSHKFMSTLVGDRVSITCKASQDVGTAVAWYQQKPGQSPKVLIYWASTRHTGVPDRFTGSGSGTDFTLTITNVQSEDLADYFCHQYSTYPYTFGGGTKLEIK
binding result [1]: no binding (tested: analyte up to 600 nM)
